According to the supplement of paper PMC10724198:
± gives the standard deviation of the averaged measurements.

System: Saccharomyces cerevisiae
Assay: protein stability index of tFT-peptide fusion (C-terminal peptide) (PSI (0-1 scale)); higher = more stable (slower turnover)
Settings: genetic background: wild type; temperature: 30 C
Experimental: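 Multiplexed protein stability (MPS) profiling in S. cerevisiae. Random 12-aa peptides (tFT-X12 library) are fused to the C-terminus of a sfGFP-mCherry tandem fluorescent timer, after mCherry and a GGGS linker. Cells are FACS-sorted into 8 mCherry/sfGFP bins and deep-sequenced. The protein stability index (PSI) is the read-weighted bin average, scaled from 0 (unstable) to 1 (stable). Only peptides with >10 reads are reported; cells were grown at 30 °C in SC-His with glucose.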
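Further: PSI is a weighted mean of sequencing reads over stability bins, variants kept only with over 10 reads, mCherry proximal and sfGFP distal, peptide attached via GGGS linker.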

In order of falling protein stability index:
1. IVFTPPSVTFHA  0.825 ± 0.22
2. HTTPGPYVLPWP  0.807 ± 0.06
3. HPSRPARPTRHP  0.806 ± 0.072
4. HPFGHSFLTAPF  0.793 ± 0.16
5. KENKKKNKKYKK  0.785 ± 0.16
6. KICHTKKKNKKK  0.769 ± 0.046
7. HVPGKWTLGFGI  0.761 ± 0.054
8. IGGLAGFGSALT  0.759 ± 0.12
9. IFKAIDQTYTDK  0.758 ± 0.15
10. IVRNDRSGPWGD  0.756 ± 0.12
11. KGNRGKDAVKTE  0.7556 ± 0.004
12. KDCGSVRQGLRY  0.754 ± 0.04
13. HPLPSSHLPPRP  0.75 ± 0.15
14. IALLQRTSSTPD  0.748 ± 0.028
15. ITQTRGPRPLAH  0.7471 ± 0.0043
16. HCSLRPRPNHAR  0.746 ± 0.032
17. HVALPAFKQLSG  0.746 ± 0.051
18. KDATVILSSRRR  0.745 ± 0.024
19. KGRSKHIKGKRR  0.743 ± 0.033
20. IKKKTTKTKIKK  0.741 ± 0.031
21. IRKIIHIDNGNT  0.741 ± 0.096
22. ISEIRHSGFTRL  0.741 ± 0.084
23. ICPWLLPPSCRS  0.738 ± 0.015
24. KEILATRQKSST  0.738 ± 0.04
25. HITTNHLPTSCD  0.73 ± 0.039
26. KGNDQVLRLFIR  0.73 ± 0.021
27. IMGGPGLTALSR  0.729 ± 0.061
28. HPLPTPSPHLSP  0.728 ± 0.016
29. HSPTPLLPPSPS  0.727 ± 0.045
30. IGMICYGKDTQY  0.726 ± 0.0073
31. IKKKKNKKENAE  0.725 ± 0.092
32. IIGVKNEGRGRE  0.724 ± 0.089
33. IACGAGGRGFSC  0.721 ± 0.025
34. IQYGSSVRREGR  0.72 ± 0.22
35. HPPLSPPSALFL  0.719 ± 0.069
36. IVPFLLFYSPPA  0.719 ± 0.055
37. IPRRSSIPDKTP  0.718 ± 0.045
38. HVSINERFKSMY  0.717 ± 0.025
39. HLGIGTRVWEFG  0.716 ± 0.061
40. HPVPSPSLRPPP  0.716 ± 0.072
41. IKDESNLKKHKN  0.715 ± 0.041
42. IGWFGRCGCCCW  0.714 ± 0.2
43. IKGKYYEAKNKI  0.714 ± 0.054
44. ISTSPRCCPRLL  0.714 ± 0.023
45. KIKKRRKKDNKR  0.7145 ± 0.0013
46. IEESNKKIKNEI  0.713 ± 0.032
47. HEVRGVFWNPRF  0.712 ± 0.053
48. IPFPSSARLRAD  0.708 ± 0.02
49. IRPPVLTDAIHS  0.708 ± 0.013
50. IITAARGDTLSR  0.706 ± 0.018
51. KHPMRLPHTRRA  0.706 ± 0.045
52. ICLLGTSSQRRD  0.705 ± 0.0077
53. IKKKKKVRYIRI  0.705 ± 0.06
54. IGGAPRIETIYP  0.704 ± 0.074
55. IKPKKKEKKQEN  0.704 ± 0.046
56. HLSNPRPPPPTR  0.703 ± 0.016
57. HNMSDARRPSNI  0.702 ± 0.021
58. IRRGRQGGEHEK  0.702 ± 0.097
59. ITTNTESSRQSY  0.702 ± 0.014
60. IHLGVLTAFGLS  0.701 ± 0.032
61. HPPLPLPCAFPP  0.7 ± 0.033
62. IIGPFDSYVYGL  0.7 ± 0.0071
63. IEITERRQKKIQ  0.699 ± 0.088
64. IKKNKQNKIKRN  0.699 ± 0.016
65. IYSTRWRRGRVE  0.699 ± 0.044
66. HPPLPPPPIVPS  0.696 ± 0.067
67. IESKANPRRIEV  0.696 ± 0.027
68. ITSFIKSDKSSK  0.696 ± 0.029
69. HSRKVHGLWALR  0.695 ± 0.0081
70. IASNAENCDVGV  0.695 ± 0.11
71. KDGAGGDWDVGE  0.6948 ± 0.006
72. IRYEVVDLEPRG  0.693 ± 0.15
73. KEATTEKNTTRA  0.6895 ± 0.0023
74. ISQNPYNGTGQE  0.6886 ± 0.001
75. KGTKIGRPVRVI  0.689 ± 0.016
76. KIKSKKEKPQVT  0.687 ± 0.023
77. HLPPFLRPPFPL  0.686 ± 0.017
78. HPPTSPGGLRQP  0.686 ± 0.0069
79. IENREVNIVERT  0.686 ± 0.011
80. IGARESGGWSLC  0.686 ± 0.023
81. INGTEYVVGRKA  0.686 ± 0.0097
82. HHPKTCHHLSRA  0.6853 ± 0.0037
83. IRIDRNLNSLGK  0.685 ± 0.017
84. ITVFRAEVRTKK  0.6846 ± 0.0054
85. IKVRGEQAEEAE  0.684 ± 0.04
86. HSLPPPCLHSTP  0.683 ± 0.021
87. IASLVSVCFLRD  0.683 ± 0.029
88. KDINNQKKETQR  0.683 ± 0.047
89. KERYKNHGQKAS  0.683 ± 0.017
90. IGGPIIYTGRLH  0.682 ± 0.19
91. IMGRRGEDGVID  0.682 ± 0.061
92. HVLSQSLSALPC  0.681 ± 0.044
93. HVTLGRGGVGPN  0.681 ± 0.02
94. INTVGRCCGLVE  0.681 ± 0.043
95. KAKKNNERAKHR  0.681 ± 0.029
96. IRPSVCQAPDMR  0.679 ± 0.042
97. HPTTHYLPRPAH  0.6779 ± 0.0022
98. IRIKLTYYKSYL  0.678 ± 0.13
99. KDIVSQEEHAPL  0.678 ± 0.036
100. ILPFSGLAFFLP  0.677 ± 0.039
101. IMGLGLASAKRM  0.677 ± 0.073
102. ISIFTCLGRFSL  0.677 ± 0.037
103. KIKTKKGTKKRK  0.677 ± 0.039
104. HRKNKYKRKTTK  0.676 ± 0.05
105. IVLGPHNFLTIL  0.676 ± 0.018
106. HLPASLHLDYSI  0.675 ± 0.043
107. IGISIRTAQGEL  0.674 ± 0.02
108. KGKGREEEDISK  0.674 ± 0.015
109. IRSLSGPLSRTF  0.673 ± 0.076
110. HPPPTHAQGRLV  0.671 ± 0.021
111. HRCLSRTVSPPS  0.671 ± 0.04
112. KAKKLRKKNENK  0.671 ± 0.038
113. KIRINKKVKNKK  0.671 ± 0.005
114. KDTGTNKASRGQ  0.67 ± 0.014
115. KGIGWSSDGGMG  0.67 ± 0.02
116. HISRTLVDADIG  0.66928 ± 8e-05
117. IGYSSIYKTTGT  0.668 ± 0.033
118. IKKKKKKKKKRQ  0.668 ± 0.027
119. ISLRELNEVCRS  0.668 ± 0.029
120. KAAQREVDLLVT  0.668 ± 0.021
121. KIKKKKKNTKTK  0.666 ± 0.047
122. HPLLPRPVPLTD  0.665 ± 0.059
123. IYSPLSPSTAPA  0.664 ± 0.012
124. IVDYSRYVIGLE  0.663 ± 0.0095
125. ISGTDGVRHFLG  0.662 ± 0.018
126. KDNAPTLPQGGN  0.662 ± 0.06
127. HLLLGPRSPPSP  0.661 ± 0.022
128. HGLFGRACRASH  0.66 ± 0.043
129. HPGPAPPPPRGP  0.66 ± 0.019
130. HSPPPPPALLPL  0.66 ± 0.028
131. ICSDGIYTKGLC  0.66 ± 0.024
132. IILKEDKSIKKR  0.6595 ± 0.0032
133. HDHEARHSDSLN  0.658 ± 0.026
134. ILGPPPRLPFPS  0.657 ± 0.012
135. HHGCATVTSRAS  0.654 ± 0.042
136. IGRWHCPDLPRH  0.653 ± 0.12
137. KGKRGKKKEESN  0.6515 ± 0.0039
138. HISTQREEIDPA  0.6506 ± 0.00086
139. IENVETSLKVVG  0.651 ± 0.0081
140. KHLNFNTNKRKD  0.651 ± 0.0093
141. IFWVGLSYVAEQ  0.65 ± 0.0084
142. HPDAGTAARDTD  0.648 ± 0.092
143. HDRRGLRRISAT  0.647 ± 0.0084
144. KETNIKKRRARG  0.6458 ± 0.0021
145. ICSFVFTTLFGG  0.6442 ± 0.0026
146. KEKSSKRSGKTE  0.644 ± 0.15
147. KGGKVGRAGEKG  0.644 ± 0.098
148. IAISAPSLLDTS  0.643 ± 0.026
149. IARLLFPPPGPI  0.643 ± 0.037
150. IFCCFFPRFPVF  0.642 ± 0.013
151. IRMEYVNTVINK  0.642 ± 0.049
152. HTKHSQIIKHQS  0.641 ± 0.03
153. IYFRILKKRSKT  0.639 ± 0.02
154. IPRGTTTFLLEV  0.638 ± 0.041
155. KGRGEVGTRRYG  0.638 ± 0.079
156. KGRFILKCKDIF  0.637 ± 0.071
157. HEHFRDRAGPAS  0.636 ± 0.017
158. HVLQFQTNIRQN  0.636 ± 0.1
159. IIAGGGPARGCG  0.635 ± 0.0071
160. HRVRVRVYTCGF  0.634 ± 0.05
161. KFKGIKEINNGN  0.633 ± 0.074
162. HFPIPPSLFFRP  0.631 ± 0.019
163. HHRNNTPLNHSY  0.63 ± 0.007
164. HIFQRMCKDMQL  0.6296 ± 0.0037
165. HPPPPAAKVAPV  0.629 ± 0.048
166. IPGVPEGLRSLH  0.629 ± 0.06
167. IKSHHVIPNSCL  0.616 ± 0.058
168. ILHCVCFGLFHF  0.614 ± 0.014
169. INKKETKKNKIK  0.612 ± 0.073
170. KGKKTTKTDAKK  0.612 ± 0.061
171. HGTVQNIVARYV  0.611 ± 0.026
172. HIKAEKRKKKTS  0.608 ± 0.024
173. IQGRFYPLLEAH  0.606 ± 0.032
174. IKSKCIQSKETT  0.6037 ± 0.005
175. KIGSQLAGYKIS  0.595 ± 0.063
176. HPCKKEKLYHLK  0.594 ± 0.091
177. HSGLTGLRRLVA  0.594 ± 0.012
178. IGFHSGLFYYHC  0.594 ± 0.056
179. ITNKKKIKDKQT  0.593 ± 0.033
180. KAHSFAYVINCL  0.589 ± 0.045
181. HSPHISAPPLPY  0.588 ± 0.024
182. IVLSRVHLLVGP  0.5798 ± 0.0032
183. IKRYYLDSMKRK  0.576 ± 0.0069
184. IDRSHFAGVIVC  0.5735 ± 0.0029
185. KGGCPTASARVL  0.5735 ± 0.0011
186. KHTNWGKQLIMT  0.5631 ± 0.0016
187. ITVWVLSDGIGV  0.5619 ± 0.002
188. IYGCISVYYSSG  0.562 ± 0.014
189. KGRFTKTKLRVH  0.5602 ± 0.0013
190. ICFGCLSWAGSW  0.554 ± 0.057
191. IKNRRTSKYLII  0.548 ± 0.0058
192. ICVSVLIRHREL  0.545 ± 0.019
193. IPSSMWHICCLC  0.538 ± 0.025
194. IRKNLIPLTIFT  0.538 ± 0.028
195. ILFLRFLHSVFS  0.5364 ± 0.0038
196. HSSFCIVIRVSR  0.5125 ± 0.001
